Reference: US20240228579A1 (Innovent, published 2024)

Target: T1, human C1q (human, UniProt P02745 23-245; P02746 28-253; P02747 29-245)
T1 construct: Bought C1q (Complement Technology); also called C1q antigen
Assay: BLI (Octet), biotinylated antibody on SA sensor
Method: The antibody was diluted to approximately 100 nM, and C1q (Δ099, Complement Technology) was diluted to 40 nM.
Detection was conducted using Fortebio Octet Red96e, and the sensors were arranged according to the positions of the samples. […] After the experiment was completed, KD values were analyzed using ForteBio Octet analysis software, the coordinate axis data were derived, and Graphpad Prism 8 software was used for plotting.

T1 sequence (P02745 23-245 limits assumed, chain 1 of 3): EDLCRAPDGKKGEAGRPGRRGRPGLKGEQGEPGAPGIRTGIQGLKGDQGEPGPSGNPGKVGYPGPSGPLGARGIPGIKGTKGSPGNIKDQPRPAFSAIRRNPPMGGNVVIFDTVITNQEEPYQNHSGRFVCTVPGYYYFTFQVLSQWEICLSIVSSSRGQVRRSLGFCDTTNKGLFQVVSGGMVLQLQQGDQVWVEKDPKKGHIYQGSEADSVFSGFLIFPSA
T1 sequence (P02746 28-253 limits assumed, chain 2 of 3): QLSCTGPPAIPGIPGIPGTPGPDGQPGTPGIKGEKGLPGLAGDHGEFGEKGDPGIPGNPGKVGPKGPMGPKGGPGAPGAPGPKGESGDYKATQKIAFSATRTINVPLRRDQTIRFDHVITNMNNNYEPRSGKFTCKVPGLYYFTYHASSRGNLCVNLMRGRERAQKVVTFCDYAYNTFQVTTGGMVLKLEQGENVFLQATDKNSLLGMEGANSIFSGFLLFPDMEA
T1 sequence (P02747 29-245 limits assumed, chain 3 of 3): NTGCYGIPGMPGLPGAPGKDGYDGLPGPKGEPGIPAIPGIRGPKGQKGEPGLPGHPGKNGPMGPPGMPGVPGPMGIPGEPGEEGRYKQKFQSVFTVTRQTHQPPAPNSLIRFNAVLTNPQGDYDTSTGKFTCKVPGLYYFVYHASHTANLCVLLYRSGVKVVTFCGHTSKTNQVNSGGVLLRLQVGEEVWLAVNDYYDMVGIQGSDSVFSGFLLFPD

Row | binding result | Binder
1 | no binding (tested: C1q 40 nM) | Fcmut-10 (antibody, human IgG2, kappa, IgG2-mut: deletion of 329 (EU index); anti-claudin18.2 variable regions of Fcmut-01) heavy: QVQLVQSGAEVKKPGSSVKVSCKASGYSFSSYNIHWVRQAPGQGLEWMGYIAPFQGDSRYNQKFKGRVTITADKSTSTAYMELSSLRSEDTAVYYCARLNRGNSLDYWGQGTLVTVSSASTKGPSVFPLAPCSRSTSESTAALGCLVKDYFPEPVTVSWNSGALTSGVHTFPAVLQSSGLYSLSSVVTVPSSNFGTQTYTCNVDHKPSNTKVDKTVERKCCVECPPCPAPPVAGPSVFLFPPKPKDTLMISRTPEVTCVVVDVSHEDPEVQFNWYVDGVEVHNAKTKPREEQFNSTFRVVSVLTVVHQDWLNGKEYKCKVSNKGLAPIEKTISKTKGQPREPQVYTLPPSREEMTKNQVSLTCLVKGFYPSDISVEWESNGQPENNYKTTPPMLDSDGSFFLYSKLTVDKSRWQQGNVFSCSVMHEALHNHYTQKSLSLSPGK light: not shown
2 | no binding (tested: C1q 40 nM) | Fcmut-11 (antibody, human IgG2, kappa, IgG2-mut: deletion of 329, G at 330 (EU index)) heavy: QVQLVQSGAEVKKPGSSVKVSCKASGYSFSSYNIHWVRQAPGQGLEWMGYIAPFQGDSRYNQKFKGRVTITADKSTSTAYMELSSLRSEDTAVYYCARLNRGNSLDYWGQGTLVTVSSASTKGPSVFPLAPCSRSTSESTAALGCLVKDYFPEPVTVSWNSGALTSGVHTFPAVLQSSGLYSLSSVVTVPSSNFGTQTYTCNVDHKPSNTKVDKTVERKCCVECPPCPAPPVAGPSVFLFPPKPKDTLMISRTPEVTCVVVDVSHEDPEVQFNWYVDGVEVHNAKTKPREEQFNSTFRVVSVLTVVHQDWLNGKEYKCKVSNKGLGPIEKTISKTKGQPREPQVYTLPPSREEMTKNQVSLTCLVKGFYPSDISVEWESNGQPENNYKTTPPMLDSDGSFFLYSKLTVDKSRWQQGNVFSCSVMHEALHNHYTQKSLSLSPGK light: not shown
3 | no binding (tested: C1q 40 nM) | Fcmut-14 (antibody, human IgG2, kappa, IgG2-mut: A at 234, deletion of 329 (EU index)) heavy: QVQLVQSGAEVKKPGSSVKVSCKASGYSFSSYNIHWVRQAPGQGLEWMGYIAPFQGDSRYNQKFKGRVTITADKSTSTAYMELSSLRSEDTAVYYCARLNRGNSLDYWGQGTLVTVSSASTKGPSVFPLAPCSRSTSESTAALGCLVKDYFPEPVTVSWNSGALTSGVHTFPAVLQSSGLYSLSSVVTVPSSNFGTQTYTCNVDHKPSNTKVDKTVERKCCVECPPCPAPPAAGPSVFLFPPKPKDTLMISRTPEVTCVVVDVSHEDPEVQFNWYVDGVEVHNAKTKPREEQFNSTFRVVSVLTVVHQDWLNGKEYKCKVSNKGLAPIEKTISKTKGQPREPQVYTLPPSREEMTKNQVSLTCLVKGFYPSDISVEWESNGQPENNYKTTPPMLDSDGSFFLYSKLTVDKSRWQQGNVFSCSVMHEALHNHYTQKSLSLSPGK light: not shown
4 | no binding (tested: C1q 40 nM) | Fcmut-15 (antibody, human IgG2, kappa, IgG2-mut: A at 234, deletion of 329, G at 330 (EU index)) heavy: QVQLVQSGAEVKKPGSSVKVSCKASGYSFSSYNIHWVRQAPGQGLEWMGYIAPFQGDSRYNQKFKGRVTITADKSTSTAYMELSSLRSEDTAVYYCARLNRGNSLDYWGQGTLVTVSSASTKGPSVFPLAPCSRSTSESTAALGCLVKDYFPEPVTVSWNSGALTSGVHTFPAVLQSSGLYSLSSVVTVPSSNFGTQTYTCNVDHKPSNTKVDKTVERKCCVECPPCPAPPAAGPSVFLFPPKPKDTLMISRTPEVTCVVVDVSHEDPEVQFNWYVDGVEVHNAKTKPREEQFNSTFRVVSVLTVVHQDWLNGKEYKCKVSNKGLGPIEKTISKTKGQPREPQVYTLPPSREEMTKNQVSLTCLVKGFYPSDISVEWESNGQPENNYKTTPPMLDSDGSFFLYSKLTVDKSRWQQGNVFSCSVMHEALHNHYTQKSLSLSPGK light: not shown
5 | no binding (tested: C1q 40 nM) | Fcmut-12 (antibody, human IgG2, kappa, IgG2-mut: deletion of 329 and 330 (EU index)) heavy: QVQLVQSGAEVKKPGSSVKVSCKASGYSFSSYNIHWVRQAPGQGLEWMGYIAPFQGDSRYNQKFKGRVTITADKSTSTAYMELSSLRSEDTAVYYCARLNRGNSLDYWGQGTLVTVSSASTKGPSVFPLAPCSRSTSESTAALGCLVKDYFPEPVTVSWNSGALTSGVHTFPAVLQSSGLYSLSSVVTVPSSNFGTQTYTCNVDHKPSNTKVDKTVERKCCVECPPCPAPPVAGPSVFLFPPKPKDTLMISRTPEVTCVVVDVSHEDPEVQFNWYVDGVEVHNAKTKPREEQFNSTFRVVSVLTVVHQDWLNGKEYKCKVSNKGLPIEKTISKTKGQPREPQVYTLPPSREEMTKNQVSLTCLVKGFYPSDISVEWESNGQPENNYKTTPPMLDSDGSFFLYSKLTVDKSRWQQGNVFSCSVMHEALHNHYTQKSLSLSPGK light: not shown
6 | no binding (tested: C1q 40 nM) | Fcmut-16 (antibody, human IgG2, kappa, IgG2-mut: A at 234, deletion of 329 and 330 (EU index)) heavy: QVQLVQSGAEVKKPGSSVKVSCKASGYSFSSYNIHWVRQAPGQGLEWMGYIAPFQGDSRYNQKFKGRVTITADKSTSTAYMELSSLRSEDTAVYYCARLNRGNSLDYWGQGTLVTVSSASTKGPSVFPLAPCSRSTSESTAALGCLVKDYFPEPVTVSWNSGALTSGVHTFPAVLQSSGLYSLSSVVTVPSSNFGTQTYTCNVDHKPSNTKVDKTVERKCCVECPPCPAPPAAGPSVFLFPPKPKDTLMISRTPEVTCVVVDVSHEDPEVQFNWYVDGVEVHNAKTKPREEQFNSTFRVVSVLTVVHQDWLNGKEYKCKVSNKGLPIEKTISKTKGQPREPQVYTLPPSREEMTKNQVSLTCLVKGFYPSDISVEWESNGQPENNYKTTPPMLDSDGSFFLYSKLTVDKSRWQQGNVFSCSVMHEALHNHYTQKSLSLSPGK light: not shown
7 | no binding (tested: C1q 40 nM) | Fcmut-13 (antibody, human IgG2, kappa, IgG2-mut: A at 234 (EU index)) heavy: QVQLVQSGAEVKKPGSSVKVSCKASGYSFSSYNIHWVRQAPGQGLEWMGYIAPFQGDSRYNQKFKGRVTITADKSTSTAYMELSSLRSEDTAVYYCARLNRGNSLDYWGQGTLVTVSSASTKGPSVFPLAPCSRSTSESTAALGCLVKDYFPEPVTVSWNSGALTSGVHTFPAVLQSSGLYSLSSVVTVPSSNFGTQTYTCNVDHKPSNTKVDKTVERKCCVECPPCPAPPAAGPSVFLFPPKPKDTLMISRTPEVTCVVVDVSHEDPEVQFNWYVDGVEVHNAKTKPREEQFNSTFRVVSVLTVVHQDWLNGKEYKCKVSNKGLPAPIEKTISKTKGQPREPQVYTLPPSREEMTKNQVSLTCLVKGFYPSDISVEWESNGQPENNYKTTPPMLDSDGSFFLYSKLTVDKSRWQQGNVFSCSVMHEALHNHYTQKSLSLSPGK light: not shown
8 | no binding (tested: C1q 40 nM) | Fcmut-18 (antibody, human IgG4 S228P, kappa, IgG4-mut: deletion of 329 (EU index)) heavy: QVQLVQSGAEVKKPGSSVKVSCKASGYSFSSYNIHWVRQAPGQGLEWMGYIAPFQGDSRYNQKFKGRVTITADKSTSTAYMELSSLRSEDTAVYYCARLNRGNSLDYWGQGTLVTVSSASTKGPSVFPLAPCSRSTSESTAALGCLVKDYFPEPVTVSWNSGALTSGVHTFPAVLQSSGLYSLSSVVTVPSSSLGTKTYTCNVDHKPSNTKVDKRVESKYGPPCPPCPAPEFLGGPSVFLFPPKPKDTLMISRTPEVTCVVVDVSQEDPEVQFNWYVDGVEVHNAKTKPREEQFNSTYRVVSVLTVLHQDWLNGKEYKCKVSNKGLSSIEKTISKAKGQPREPQVYTLPPSQEEMTKNQVSLTCLVKGFYPSDIAVEWESNGQPENNYKTTPPVLDSDGSFFLYSRLTVDKSRWQEGNVFSCSVMHEALHNHYTQKSLSLSLGK light: not shown
9 | no binding (tested: C1q 40 nM) | Fcmut-19 (antibody, human IgG4 S228P, kappa, IgG4-mut: deletion of 329, G at 330 (EU index)) heavy: QVQLVQSGAEVKKPGSSVKVSCKASGYSFSSYNIHWVRQAPGQGLEWMGYIAPFQGDSRYNQKFKGRVTITADKSTSTAYMELSSLRSEDTAVYYCARLNRGNSLDYWGQGTLVTVSSASTKGPSVFPLAPCSRSTSESTAALGCLVKDYFPEPVTVSWNSGALTSGVHTFPAVLQSSGLYSLSSVVTVPSSSLGTKTYTCNVDHKPSNTKVDKRVESKYGPPCPPCPAPEFLGGPSVFLFPPKPKDTLMISRTPEVTCVVVDVSQEDPEVQFNWYVDGVEVHNAKTKPREEQFNSTYRVVSVLTVLHQDWLNGKEYKCKVSNKGLGSIEKTISKAKGQPREPQVYTLPPSQEEMTKNQVSLTCLVKGFYPSDIAVEWESNGQPENNYKTTPPVLDSDGSFFLYSRLTVDKSRWQEGNVFSCSVMHEALHNHYTQKSLSLSLGK light: not shown
10 | no binding (tested: C1q 40 nM) | Fcmut-22 (antibody, human IgG4 S228P, kappa, F234A L235A) heavy: QVQLVQSGAEVKKPGSSVKVSCKASGYSFSSYNIHWVRQAPGQGLEWMGYIAPFQGDSRYNQKFKGRVTITADKSTSTAYMELSSLRSEDTAVYYCARLNRGNSLDYWGQGTLVTVSSASTKGPSVFPLAPCSRSTSESTAALGCLVKDYFPEPVTVSWNSGALTSGVHTFPAVLQSSGLYSLSSVVTVPSSSLGTKTYTCNVDHKPSNTKVDKRVESKYGPPCPPCPAPEAAGGPSVFLFPPKPKDTLMISRTPEVTCVVVDVSQEDPEVQFNWYVDGVEVHNAKTKPREEQFNSTYRVVSVLTVLHQDWLNGKEYKCKVSNKGLSSIEKTISKAKGQPREPQVYTLPPSQEEMTKNQVSLTCLVKGFYPSDIAVEWESNGQPENNYKTTPPVLDSDGSFFLYSRLTVDKSRWQEGNVFSCSVMHEALHNHYTQKSLSLSLGK light: not shown
11 | no binding (tested: C1q 40 nM) | Fcmut-23 (antibody, human IgG4 S228P, kappa, F234A L235A) heavy: QVQLVQSGAEVKKPGSSVKVSCKASGYSFSSYNIHWVRQAPGQGLEWMGYIAPFQGDSRYNQKFKGRVTITADKSTSTAYMELSSLRSEDTAVYYCARLNRGNSLDYWGQGTLVTVSSASTKGPSVFPLAPCSRSTSESTAALGCLVKDYFPEPVTVSWNSGALTSGVHTFPAVLQSSGLYSLSSVVTVPSSSLGTKTYTCNVDHKPSNTKVDKRVESKYGPPCPPCPAPEAAGGPSVFLFPPKPKDTLMISRTPEVTCVVVDVSQEDPEVQFNWYVDGVEVHNAKTKPREEQFNSTYRVVSVLTVLHQDWLNGKEYKCKVSNKGLGSIEKTISKAKGQPREPQVYTLPPSQEEMTKNQVSLTCLVKGFYPSDIAVEWESNGQPENNYKTTPPVLDSDGSFFLYSRLTVDKSRWQEGNVFSCSVMHEALHNHYTQKSLSLSLGK light: not shown
12 | no binding (tested: C1q 40 nM) | Fcmut-20 (antibody, human IgG4 S228P, kappa, IgG4-mut: deletion of 329 and 330 (EU index)) heavy: QVQLVQSGAEVKKPGSSVKVSCKASGYSFSSYNIHWVRQAPGQGLEWMGYIAPFQGDSRYNQKFKGRVTITADKSTSTAYMELSSLRSEDTAVYYCARLNRGNSLDYWGQGTLVTVSSASTKGPSVFPLAPCSRSTSESTAALGCLVKDYFPEPVTVSWNSGALTSGVHTFPAVLQSSGLYSLSSVVTVPSSSLGTKTYTCNVDHKPSNTKVDKRVESKYGPPCPPCPAPEFLGGPSVFLFPPKPKDTLMISRTPEVTCVVVDVSQEDPEVQFNWYVDGVEVHNAKTKPREEQFNSTYRVVSVLTVLHQDWLNGKEYKCKVSNKGLSIEKTISKAKGQPREPQVYTLPPSQEEMTKNQVSLTCLVKGFYPSDIAVEWESNGQPENNYKTTPPVLDSDGSFFLYSRLTVDKSRWQEGNVFSCSVMHEALHNHYTQKSLSLSLGK light: not shown
